This is an account of results in the nanobody polyreactivity screen of Harvey et al. (2022).

The data set in a line: yeast display, Sf9 membrane polyspecificity reagent, FACS + sequencing; frameworks hold sequencing errors. The method in brief: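 A synthetic nanobody library was expressed on Saccharomyces cerevisiae BJ5465 by galactose induction for 36–48 hours. The library was stained for 1 hour at 4 °C with 10% biotinylated, detergent-solubilized Sf9 membrane reagent and enriched with streptavidin microbeads before FACS. Low and high (top ~1%) gates were set on anti-HA fluorescence for expression and streptavidin fluorescence for reagent binding, and each polyreactivity label reflects the gate of origin.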
Consider “QVQLVESGGGLVQAGGSLRLSCAASGRTFSPYVMGWYRQAPGKETELVATITGGGGSTYYADSVKGRFTISRDNAKNTVFLQMNSLKPEDTAVYYCARGYRYYVYRMGYWGQGTQVTVSS”, for which the “polyreactivity (PSR sort gate)” value is “high polyreactivity”.

On to “QVQLVESGGGLVQAGGSLRLSCAASGRTFSRNAMGWYRQAPGKERELVAAISRSGGSTYYADSVKGRFTISRDNAKNTVYFQLNSLKPEDTAVYYCKADVYSTYYNYNYWGQGTQVTVSS”, for which the “polyreactivity (PSR sort gate)” value is on record as “high polyreactivity”. With “QVQLVESGGGLVQAGGSLRLSCAASGRTFSRYAMGWYRQAPGKEREFVAAISASGGSTYYADSVKGRFTISRDNAKNTVYLQMNSLKPEDTAVYYCAASGYYRYYQYRYDYWGQGTQVTVSS”, the “polyreactivity (PSR sort gate)” value is on record as “high polyreactivity”.

On to “QVQLVESGGGLVQAGGSLRLSCAASGRTFSRYAMGWYRQAPGKERELVAAISNSGASTYYADSVKGRFTISRDNAKNTVYLQMNSLKPEDTAVYYCAAERYRLSYQYQEYYYWGQGTQVTVSS”, for which the “polyreactivity (PSR sort gate)” value is listed as “high polyreactivity”. Under “QVQLVESGGGLVQAGGSLRLSCAASGRTFSSNAMGWYRQDPGKERELVASISFRGGRTYYADSVKGRFTISRDNAKNTVYLQMNSLKPEVTAVYYCVSGTKRTGYGYWGQGTQVTVSS” stands “high polyreactivity”; under “QVQLVESGGGLVQAGGSLRLSCAASGRTFSSYAMGWYIQAPGKERELVAAITRGGGSTYYADSVKGRFTISRDNAKNTVYLQMNSLKPEDTAVYYCAADYGRDYRAFNYWGQGTQVTVSS”, “high polyreactivity”; under “QVQLVESGGGLVQAGGSLRLSCAASGRTFSSYAMGWYRQAPGKERELVADINRSGGSTYYADSVKGRFTISRDNAKNTVYLQMNSLKPEDTAVYYCNVRIWPWYGYDYWGQGTQVTVSS”, “low polyreactivity”. As to “QVQLVESGGGLVQAGGSLRLSCAASGRTFSSYAMGWYRQAPGKERELVASISKSGGSTSYADSVKGRFTISRDNAKNTVYLQMNSLKPEDTAVYYCNARLDYSTYESSPVTRKRYYWGQGTQVTVSS”, the “polyreactivity (PSR sort gate)” value is given as “low polyreactivity”. Under “QVQLVESGGGLVQAGGSLRLSCAASGRTFSTNVMGWYRQAPGKERELVAAITTSSSRTYYADSVKGRFTISRDNAKNTVYLQMNSLKPEDTAVYYCAARIHGSWSFDYWGQCTQVTVSS” stands “low polyreactivity”; under “QVQLVESGGGLVQAGGSLRLSCAASGRTFSTYAMGGYRQAPGKERELVAVIRRDGSTSYADSVKGRFTISRDNAKNTVYLQMNSLKPEDTAVYYCAVTRRGEYYWGQGTQVTVSS”, “high polyreactivity”. Under “QVQLVESGGGLVQAGGSLRLSCAASGRTFSTYAMGWYRQAPGKERELVAAISWRGARTYYADSVKGRFTISRDNAKNTVYLQMNSLKPEDTAVYYCAVRSLVAIRGRAYYYWGQGTQVTVSS” stands “high polyreactivity”.

With “QVQLVESGGGLVQAGGSLRLSCAASGRTFSTYTMGWYRQAPGKERELVAAITSSGGGTYYADSVKGRFTISRDNAKNTVYLQMNSLKPEDTAVSYCGTVRTYRPPVRRGYWGQGTQVTVSS”, the “polyreactivity (PSR sort gate)” value is given as “high polyreactivity”. Under “QVQLVESGGGLVQAGGSLRLSCAASGRTFSVNAMGWYRPAPGKERELVAAISWSTGSTYYADSVKGRFTISRDNAKNTVYLQMNSLKPEDTAVYYCAKLYEYRRSRYRTYGYWGQGTQVTVSS” stands “high polyreactivity”; under “QVQLVESGGGLVQAGGSLRLSCAASGRTFSVNAMGWYRQAPGKERELVAAISWDGGSTYYADSVKGRFTISRDNAKNSVYLQMNSLKPEDTAVYYCNKDLYYAYDYWGQGTQVTVSS”, “low polyreactivity”; under “QVQLVESGGGLVQAGGSLRLSCAASGRTFSVNDMGWYRQAPGKERELVAAISFSGGSTYYADSVKGRFTISRDNAKNSVYLQMNSLKPEDTEVYYCAAEAYASCFYVITGFGIYDYWGQGTQVTVSS”, “high polyreactivity”.

As for “QVQLVESGGGLVQAGGSLRLSCAASGRTFSVNDMGWYRQAPGKERELVAAISFSGGSTYYADSVKGRFTISRDNAKNTVYLQMNSLKPEDTAVYYCASEAYPSWFYVITGFGIYDYWGQGTQVTVSS”, the “polyreactivity (PSR sort gate)” value is on record as “high polyreactivity”. Under “QVQLVESGGGLVQAGGSLRLSCAASGRTFSVYAMGSSRHAPGKERELVAAITESGGSTYYADSVKGRFTISRDNAKITVYLQMNSLKPEDTAVYYCNAGPYYWYVYWGQGTQVTVSS” stands “low polyreactivity”; under “QVQLVESGGGLVQAGGSLRLSCAASGRTFSVYAMGWYRQAPGKERELVARIRSGGSTYYADSVKGRFTISRDNAKNTVYLQMNRLKPEDTAVYYCATQHYGPSSNARGVYRYYYWGHGTQVTVSS”, “high polyreactivity”; under “QVQLVESGGGLVQAGGSLRLSCAASGRTFSVYTMGWYRQAPGKERELVASINWSGGRTYYADSVKGRFTISRDNAKNTVYLQMNSLKPEDTAVYYCAATGWRTLYDYWGQGTQVTVSS”, “high polyreactivity”. Under “QVQLVESGGGLVQAGGSLRLSCAASGRTFSWNAMGWYRQAPGKERELVAAINRSGGITFYADSVKGRFTISRDNAKNTVYLHMNSLKPEDTAVYYSAADRSFGHHYWYSGKRYDYWGQGTQVTVSS” stands “low polyreactivity”; under “QVQLVESGGGLVQAGGSLRLSCAASGRTFSWYVMGWYRQAPGKERELVAAISWNGGRTYYADSVKGRFTISRDNAKNTVYLQMNSLKPEDTAVYYCNRDYYWRDGAKYIDDYWGQGTQVTVSS”, “high polyreactivity”; under “QVQLVESGGGLVQAGGSLRLSCAASGRTFSYAMGWYRQAPGKERELVAAITSGGSTYYADSVKGRFTISRDNAKNTVYLQMNSLKPEDTAVYYCAKLLGNYARYDYWGHGTQVTVSS”, “high polyreactivity”. Under “QVQLVESGGGLVQAGGSLRLSCAASGRTFSYNAMGWYRQAPGKERELVAAISWSDGSTYYADSVKGRFTISRDNAKNTVYLQMNSLKPEDTAVYYCAVESFYRHASLYDNWGQGTQVTVSS” stands “high polyreactivity”; under “QVQLVESGGGLVQAGGSLRLSCAASGRTFSYNARGWYRPAPGKEMELVASISSSGTSTSYADSVKGRFTISRDYAKNTVYLQMNSLKPEDTAVYYCATVRYPYWYSGPQNSRGYWGQGSQVTVSS”, “high polyreactivity”; under “QVQLVESGGGLVQAGGSLRLSCAASGRTFSYYALGWYRQAPGKERELVATISYSTGNTNYADSVKGRFTISRDNAKNTVYLQMNSLKPEDTAVYYCAADFSPFVGETYWKYDYWGQGTQVTVSS”, “low polyreactivity”. Take “QVQLVESGGGLVQAGGSLRLSCAASGRTFSYYAMGWSRQAPGKERELVAAMSWNGGSTYYADSVKGRFTISRDNAKNTVYFQMNSLKPEDTAVYYGAAAFYYYGDYDYWGQGTQVTVSS”: the “polyreactivity (PSR sort gate)” value is on record as “low polyreactivity”. Under “QVQLVESGGGLVQAGGSLRLSCAASGRTFSYYAMGWYRPAPGKERELVARITYRGGRTYYADSVKGRFTISRDNAKNTVYLQMNSLKPEDTAVYYCATTSWRYGYDYWGQGTQVTVSS” stands “high polyreactivity”. Under “QVQLVESGGGLVQAGGSLRLSCAASGRTFSYYAMGWYRQAAGKERELVAAISRAGRTNYADSVKGRFTISRDNAKNTVYLQMNSLKPEDTAVYYCAATGWLRIDRPYTYTYCYWGQGTQVTVSS” stands “high polyreactivity”; under “QVQLVESGGGLVQAGGSLRLSCAASGRTFSYYAMGWYRQAPGKERELVAAIRRSSGTTYYADSVKGRFTISSDNAKNTVYLQMNSLKPEDTAVYYCNARSRRASIKRDYWGQGTQVTVSS”, “high polyreactivity”; under “QVQLVESGGGLVQAGGSLRLSCAASGRTFSYYAMGWYRQAPGKERELVAAISSGGSTNYADSVKGRFTISRDNAKNTVYLQMNSLKPEDPAFYYCANSSIWGSGRVRWVTYYFWGQGTQVTVSS”, “low polyreactivity”. Under “QVQLVESGGGLVQAGGSLRLSCAASGRTFSYYAMGWYRQAPGKERELVARITYRGGRTYYADSVKGRFTISRDHAKNTVYLQMNSLKPEDTAVYYCNADAIYKRGGRDYWGQGTQVTVSS” stands “high polyreactivity”; under “QVQLVESGGGLVQAGGSLRLSCAASGRTFSYYAMGWYRQAPGKERELVASISGGGRTNYADSVKGRFTISRDNAKITVYLQMNSVKPEDTAVYYCAASYQITRQYKRGYWGQGTQVTVSS”, “high polyreactivity”. On to “QVQLVESGGGLVQAGGSLRLSCAASGRTFSYYARGWYRQAPGKERELVAAISSGGSTNYADSVKGRFTISRDNAKNTVYFQMNSLKPEDTAVYYCAALWSGYKFNYWGQGTQVTVSS”, for which the “polyreactivity (PSR sort gate)” value is listed as “low polyreactivity”. The same measure for “QVQLVESGGGLVQAGGSLRLSCAASGRTFTEYAMGWYRQAPGKEREFVARIRWSDGSTYYADSVKGRFTISRDNAKNTVYLQMNSLLPEDTAVYYCAARYIETPVTVLSLMDYWGQGTQVTVSS”: “low polyreactivity”; for “QVQLVESGGGLVQAGGSLRLSCAASGRTFTFYAMGWYRQAPGKERELVAAIRRGGSTIYADSVKGRFTISRDNAKNTVYLQMNSLKPEDTAVYYCNKRVWYPYWTLDYWGQGTQVTVSS”: “low polyreactivity”.

“QVQLVESGGGLVQAGGSLRLSCAASGRTFTFYAMGWYRQAPGKERELVAAITWSGGSTYYADSVKGRFTISRDNAKNTVYLQRNSLKPEDTAVYYCAKLDVISDDLDYWGQGTQVTVSS”: the “polyreactivity (PSR sort gate)” value is on record as “low polyreactivity”. Take “QVQLVESGGGLVQAGGSLRLSCAASGRTFTHYAMGWYRQAPGKERELVAAITASGGSTYYADSVKGRFTISRDNAQNTVYLQMNSLKPEDTAVYYCATEANQRTLNDTVKDYDYWGQGTQVTVSS”: the “polyreactivity (PSR sort gate)” value was “low polyreactivity”. The same measure for “QVQLVESGGGLVQAGGSLRLSCAASGRTFTINTMGWYRQAPGKERELVAAITVSGGSTYYADSVKGRFTISRDNAKNTVYLQMNSLKPEDTAVYYCAAQRSYVNLGQTHDYWGQGTQVNVSS”: “low polyreactivity”; for “QVQLVESGGGLVQAGGSLRLSCAASGRTFTKNAMGWYRQAPGKEREFVAAISKSTGSTYYADSVKGRFTISRDNAKNTVYLQMNSLKPEDTAVYYCNARYRFFIQARWGYIFGYWGQGTQVTVSS”: “high polyreactivity”; for “QVQLVESGGGLVQAGGSLRLSCAASGRTFTKYAMGWYRQAPGKERELVAAISRSGGSTYYADSVKGRFTISRDNAKNTVYLQMNSLKPEDTAVYYCAARGQYRYSFGDYSWGQGTQVTVSS”: “high polyreactivity”.
